From article PMC12774641

Molecular target: SpβL1 Namat (nicotinamide ADP-ribose transferase), untagged (SpβL1 phage)
Assay: mass photometry; Refeyn mass photometry; 50 nM Namat after gel filtration

stoichiometry N: 2
Substance: SpβL1 Namat (nicotinamide ADP-ribose transferase), untagged (enzyme)
